Data on two molecules can be found in US20100267060A1 (BIOSITE, published 2010).

The assay addresses T1, Human secretagogin (SEQ ID NO: 1, containing an amino terminal … FLIS tag) (human, UniProt O76038 1-276).
T1 construct: It was biotinylated for the screening ELISA and unlabeled in the sandwich screens; also called Secretagogin protein; human secretagogin-biotin
T1 sequence: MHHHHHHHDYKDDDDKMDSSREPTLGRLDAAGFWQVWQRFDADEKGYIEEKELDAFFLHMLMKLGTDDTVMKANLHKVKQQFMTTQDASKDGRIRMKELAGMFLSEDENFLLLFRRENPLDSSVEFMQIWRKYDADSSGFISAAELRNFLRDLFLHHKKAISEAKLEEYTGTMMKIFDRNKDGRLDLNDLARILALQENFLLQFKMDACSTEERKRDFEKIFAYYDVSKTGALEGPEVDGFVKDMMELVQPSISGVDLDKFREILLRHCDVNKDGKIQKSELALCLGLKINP
Description: method not stated.

B1: ST102Z X1ZM 01611 (antibody, V domains shown)
VH: QVQLQQSRPELVRPGASVKISCKAPGYIFTSHWMQWVRQRPGQGLEWIGEIFPGSGSTFYNEKFKDKATLTVDTSSSTAYMQLSSLTSEDSAVYFCARTDYYSSAMDYWGQGTSVTVSS
VL: ETTVTQSPSSLSMAIGEKVTIRCITHTDIDDDMNWYQQKPGEPPKLLISEGNTLRPGVPSRFSSSGFGTDFFFTIENMLSEDVADYYCLQSDTLPLTFGAGTKLELK
notes: Mouse monoclonal antibody from phage-display library ST102ZX1, expressed in E. coli from a plasmid vector
In turn, B1 yielded a Ka of at least 1e+10 M⁻¹.

B2: ST108Z R1ZM 02871 (antibody, V domains shown)
VH: EVQLQQSGPELVKPGTSVKMSCKASGYSFTDYNMHWVKQSHGKSLEWIGYVDPNIGGTSYNPKFKGKATLTVNKSSSTAYMELRSLTSEDSAVYFCARYPNYSGRRYLFAMDYWGQGTSVTVSS
VL: EIVLTQSPAIMSASPGEKVTLTCSASSSISSSYFYWYRQKPGSSPQLWIYGTSNLASGVPARFSGSGSGTSYSLTISSMEAEDAASYFCHQWSSYPLTFGAGTKLELK
notes: Mouse monoclonal antibody from phage-display library ST108ZR1, expressed in E. coli from a plasmid vector
B2 displayed a Ka of at least 1e+10 M⁻¹.
